{"source": "paper PMC7139201", "about": "(Developmental cell, 2020)", "binders": {"B1": {"name": "GST-Did4 (natural protein, S. japonicus, UniProt B6K6Y8 1-208, looked up)", "chain": "MGMFDWIFGKQRSPAEVMRAHQRQLNRAERELDREQLKLDQREKGLIREIKANAKAGNVGAARVQARDLMRLRNSRKRMQNTKTQLQAIGLRLTTVRSSDQMMSSMRSATTLLTRMNRSANLPALTRITQQFERENDMMEQRQDMIDEQFEEGLEDEDEEEADELVDQVLDEIGVSLSQDLPSAAQANTTKADTISSGLNLEDLAHIR"}}, "biological_target": "T1, Vps4^E233Q-3xHA (ATP hydrolysis deficient substrate trap mutant) (S. japonicus, UniProt B6K5C2 1-436, E233Q)", "T1 sequence (looked up)": "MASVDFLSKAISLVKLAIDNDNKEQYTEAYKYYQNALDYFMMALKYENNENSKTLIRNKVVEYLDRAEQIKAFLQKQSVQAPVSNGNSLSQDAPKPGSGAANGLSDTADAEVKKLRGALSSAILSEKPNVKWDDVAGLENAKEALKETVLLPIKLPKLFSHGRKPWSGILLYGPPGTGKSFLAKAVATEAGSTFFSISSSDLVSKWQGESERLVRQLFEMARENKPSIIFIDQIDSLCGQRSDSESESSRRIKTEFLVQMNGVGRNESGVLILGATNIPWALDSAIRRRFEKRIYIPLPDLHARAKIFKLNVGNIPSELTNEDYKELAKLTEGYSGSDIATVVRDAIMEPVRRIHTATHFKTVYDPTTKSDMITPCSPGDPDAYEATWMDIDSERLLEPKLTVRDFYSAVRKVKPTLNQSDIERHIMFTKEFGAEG", "assay": "pull-down", "data": [{"binder": "B1", "values": [{"measurement": "binding result", "value": "binds"}]}]}
